In series [1] the test system is MCF7. The series is described as follows: percentage of EdU-negative (G0-arrested) nuclei per well, 72 h; higher = more G0 arrest. As to conditions: reference: sequence is the full UniProt precursor, the tested protein was the secreted form or ectodomain.
The subject of series [2] is hTERT-HMEC. The series is described as above. The note with it: reference: sequence is the full UniProt precursor, the tested protein was the secreted form or ectodomain.
Where [3] appears, read: protein concentration 0.0191429 µM.
[4] abbreviates: protein concentration 0.191429 µM.
Where [5] appears, read: protein concentration 0.0231125 µM.
[6] abbreviates: protein concentration 0.231125 µM.
[7] abbreviates: protein concentration 0.0225 µM.
[8] abbreviates: protein concentration 0.0239275 µM.
[9] abbreviates: protein concentration 0.239275 µM.
The mark [10] stands for this setting: protein concentration 0.012475 µM.
Where [11] appears, read: protein concentration 0.12475 µM.
[12] abbreviates: protein concentration 0.0202725 µM.
Where [13] appears, read: protein concentration 0.202725 µM.
The mark [14] stands for this setting: protein concentration 0.0257143 µM.
[15] abbreviates: protein concentration 0.257143 µM.

± gives the standard deviation of the averaged measurements.
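Further: secreted proteins added to cultured cells, EdU pulse at the end, nuclei found by Hoechst imaging, EdU status from nuclear versus surrounding ring intensity ratio, PBS as neutral control.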

Consider “MRPRLWLLLAAQLTVLHGNSVLQQTPAYIKVQTNKMVMLSCEAKISLSNMRIYWLRQRQAPSSDSHHEFLALWDSAKGTIHGEEVEQEKIAVFRDASRFILNLTSVKPEDSGIYFCMIVGSPELTFGKGTQLSVVDFLPTTAQPTKKSTLKKRVCRLPRPETQKGPLCSPITLGLLVAGVLVLLVSLGVAIHLCCRRRRARLRFMKQFYK”, for which the “percentage of EdU-negative” value in series [1] (setting [3]) is 27.8 ± 0.56%; in series [1] (setting [4]), 28.7 ± 0.39%; in series [2] (setting [3]), 5.15 ± 0.17%; in series [2] (setting [4]) it was 4.67 ± 0.05%.

Take “MALLFSLILAICTRPGFLASPSGVRLVGGLHRCEGRVEVEQKGQWGTVCDDGWDIKDVAVLCRELGCGAASGTPSGILYEPPAEKEQKVLIQSVSCTGTEDTLAQCEQEEVYDCSHDEDAGASCENPESSFSPVPEGVRLADGPGHCKGRVEVKHQNQWYTVCQTGWSLRAAKVVCRQLGCGRAVLTQKRCNKHAYGRKPIWLSQMSCSGREATLQDCPSGPWGKNTCNHDEDTWVECEDPFDLRLVGGDNLCSGRLEVLHKGVWGSVCDDNWGEKEDQVVCKQLGCGKSLSPSFRDRKCYGPGVGRIWLDNVRCSGEEQSLEQCQHRFWGFHDCTHQEDVAVICSG”: the “percentage of EdU-negative” value in series [1] (setting [5]) is 24.9 ± 0.77%; in series [1] (setting [6]) it was 27.1 ± 0.67%; in series [2] (setting [5]), 5.21 ± 0.98%; in series [2] (setting [6]) it was 5.51 ± 0.056%.

Consider “MRPQGPAASPQRLRGLLLLLLLQLPAPSSASEIPKGKQKAQLRQREVVDLYNGMCLQGPAGVPGRDGSPGANGIPGTPGIPGRDGFKGEKGECLRESFEESWTPNYKQCSWSSLNYGIDLGKIAECTFTKMRSNSALRVLFSGSLRLKCRNACCQRWYFTFNGAECSGPLPIEAIIYLDQGSPEMNSTINIHRTSSVEGLCEGIGAGLVDVAIWVGTCSDYPKGDASTGWNSVSRIIIEELPK [Q96CG8]”, for which the “percentage of EdU-negative” value turned out to be 25.9 ± 1.8% in series [1] (setting [7]), 22.2 ± 3.5% in series [1] (protein concentration 0.225 µM), 5.305 ± 0.023% in series [2] (setting [7]) and 4.81 ± 1.6% in series [2] (protein concentration 0.225 µM).

On to “MGHLSAPLHRVRVPWQGLLLTASLLTFWNPPTTAQLTTESMPFNVAEGKEVLLLVHNLPQQLFGYSWYKGERVDGNRQIVGYAIGTQQATPGPANSGRETIYPNASLLIQNVTQNDTGFYTLQVIKSDLVNEEATGQFHVYPELPKPSISSNNSNPVEDKDAVAFTCEPETQDTTYLWWINNQSLPVSPRLQLSNGNRTLTLLSVTRNDTGPYECEIQNPVSANRSDPVTLNVTYGPDTPTISPSDTYYRPGANLSLSCYAASNPPAQYSWLINGTFQQSTQELFIPNITVNNSGSYTCHANNSVTGCNRTTVKTIIVTELSPVVAKPQIKASKTTVTGDKDSVNLTCSTNDTGISIRWFFKNQSLPSSERMKLSQGNTTLSINPVKREDAGTYWCEVFNPISKNQSDPIMLNVNYNALPQENGLSPGAIAGIVIGVVALVALIAVALACFLHFGKTGRASDQRDLTEHKPSVSNHTQDHSNDPPNKMNEVTYSTLNFEAQQPTQPTSASPSLTATEIIYSEVKKQ”, for which the “percentage of EdU-negative” value in series [1] (setting [7]) turned out to be 24.7 ± 1.3%; in series [1] (protein concentration 0.225 µM) it was 26.6 ± 0.95%; in series [2] (setting [7]) it was 5.04 ± 1.4%; in series [2] (protein concentration 0.225 µM), 7.07 ± 0.44%.

With “MGIQGGSVLFGLLLVLAVFCHSGHSLQCYNCPNPTADCKTAVNCSSDFDACLITKAGLQVYNKCWKFEHCNFNDVTTRLRENELTYYCCKKDLCNFNEQLENGGTSLSEKTVLLLVTPFLAAAWSLHP”, the “percentage of EdU-negative” value in series [1] (setting [7]) came out at 28.2 ± 1.9%; in series [1] (protein concentration 0.225 µM) it was 25.8 ± 1%; in series [2] (setting [7]), 5.4 ± 0.53%; in series [2] (protein concentration 0.225 µM) it was 5.24 ± 1.1%.

As to “MGTLSAPPCTQRIKWKGLLLTASLLNFWNLPTTAQVTIEAEPTKVSEGKDVLLLVHNLPQNLTGYIWYKGQMRDLYHYITSYVVDGEIIIYGPAYSGRETAYSNASLLIQNVTREDAGSYTLHIIKGDDGTRGVTGRFTFTLHLETPKPSISSSNLNPRETMEAVSLTCDPETPDASYLWWMNGQSLPMTHSLKLSETNRTLFLLGVTKYTAGPYECEIRNPVSASRSDPVTLNLLPKLPKPYITINNLNPRENKDVLNFTCEPKSENYTYIWWLNGQSLPVSPRVKRPIENRILILPSVTRNETGPYQCEIRDRYGGIRSDPVTLNVLYGPDLPRIYPSFTYYRSGEVLYLSCSADSNPPAQYSWTINEKFQLPGQKLFIRHITTKHSGLYVCSVRNSATGKESSKSMTVEVSDWTVP”, the “percentage of EdU-negative” value was 25 ± 2.2% in series [1] (setting [8]), 25.7 ± 1.8% in series [1] (setting [9]), 5.16 ± 0.84% in series [2] (setting [8]) and 7.5 ± 0.26% in series [2] (setting [9]).

With “MAKMNLSSYILILTFSLFSQGILLSASKSIRNLDDDMVFNTFRLGKGFQKEDTAEKSVIAPSLEQYKNDESSFMNEEENKVSKNTGSKHNFLNHGLPLNLAIKPYLALKGSVAFPAENGVQNTESTQEKREIGDEENSAKFPIGRRDFDMLRCMLGRVYRPCWQV”, the “percentage of EdU-negative” value came out at 26 ± 2.4% in series [1] (setting [7]), 26 ± 1.2% in series [1] (protein concentration 0.225 µM), 5.49 ± 0.6% in series [2] (setting [7]) and 5.82 ± 0.072% in series [2] (protein concentration 0.225 µM).

Take “MMQKLLKCSRLVLALALILVLESSVQGYPTRRARYQWVRCNPDSNSANCLEEKGPMFELLPGESNKIPRLRTDLFPKTRIQDLNRIFPLSEDYSGSGFGSGSGSGSGSGSGFLTEMEQDYQLVDESDAFHDNLRSLDRNLPSDSQDLGQHGLEEDFML”: the “percentage of EdU-negative” value amounted to 24.3 ± 3.3% in series [1] (setting [7]), 26 ± 1.7% in series [1] (protein concentration 0.225 µM), 5.29 ± 0.12% in series [2] (setting [7]) and 5.72 ± 0.97% in series [2] (protein concentration 0.225 µM).

Take “MRGANAWAPLCLLLAAATQLSRQQSPERPVFTCGGILTGESGFIGSEGFPGVYPPNSKCTWKITVPEGKVVVLNFRFIDLESDNLCRYDFVDVYNGHANGQRIGRFCGTFRPGALVSSGNKMMVQMISDANTAGNGFMAMFSAAEPNERGDQYCGGLLDRPSGSFKTPNWPDRDYPAGVTCVWHIVAPKNQLIELKFEKFDVERDNYCRYDYVAVFNGGEVNDARRIGKYCGDSPPAPIVSERNELLIQFLSDLSLTADGFIGHYIFRPKKLPTTTEQPVTTTFPVTTGLKPTVALCQQKCRRTGTLEGNYCSSDFVLAGTVITTITRDGSLHATVSIINIYKEGNLAIQQAGKNMSARLTVVCKQCPLLRRGLNYIIMGQVGEDGRGKIMPNSFIMMFKTKNQKLLDALKNKQC [Q9UKZ9]”: the “percentage of EdU-negative” value in series [1] (setting [10]) was determined as 25.27 ± 0.085%; in series [1] (setting [11]) it was 25.1 ± 1.3%; in series [2] (setting [10]), 4.6 ± 0.68%; in series [2] (setting [11]), 7.45 ± 0.19%.

For “MERDGCAGGGSRGGEGGRAPREGPAGNGRDRGRSHAAEAPGDPQAAASLLAPMDVGEEPLEKAARARTAKDPNTYKVLSLVLSVCVLTTILGCIFGLKPSCAKEVKSCKGRCFERTFGNCRCDAACVELGNCCLDYQETCIEPEHIWTCNKFRCGEKRLTRSLCACSDDCKDKGDCCINYSSVCQGEKSWVEEPCESINEPQCPAGFETPPTLLFSLDGFRAEYLHTWGGLLPVISKLKKCGTYTKNMRPVYPTKTFPNHYSIVTGLYPESHGIIDNKMYDPKMNASFSLKSKEKFNPEWYKGEPIWVTAKYQGLKSGTFFWPGSDVEINGIFPDIYKMYNGSVPFEERILAVLQWLQLPKDERPHFYTLYLEEPDSSGHSYGPVSSEVIKALQRVDGMVGMLMDGLKELNLHRCLNLILISDHGMEQGSCKKYIYLNKYLGDVKNIKVIYGPAARLRPSDVPDKYYSFNYEGIARNLSCREPNQHFKPYLKHFLPKRLHFAKSDRIEPLTFYLDPQWQLALNPSERKYCGSGFHGSDNVFSNMQALFVGYGPGFKHGIEADTFENIEVYNLMCDLLNLTPAPNNGTHGSLNHLLKNPVYTPKHPKEVHPLVQCPFTRNPRDNLGCSCNPSILPIEDFQTQFNLTVAEEKIIKHETLPYGRPRVLQKENTICLLSQHQFMSGYSQDILMPLWTSYTVDRNDSFSTEDFSNCLYQDFRIPLSPVHKCSFYKNNTKVSYGFLSPPQLNKNSSGIYSEALLTTNIVPMYQSFQVIWRYFHDTLLRKYAEERNGVNVVSGPVFDFDYDGRCDSLENLRQKRRVIRNQEILIPTHFFIVLTSCKDTSQTPLHCENLDTLAFILPHRTDNSESCVHGKHDSSWVEELLMLHRARITDVEHITGLSFYQQRKEPVSDILKLKTHLPTFSQED”, the “percentage of EdU-negative” value in series [1] (setting [12]) was determined as 25.1 ± 0.47%; in series [1] (setting [13]), 24.77 ± 0.21%; in series [2] (setting [12]), 4.82 ± 0.41%; in series [2] (setting [13]), 5.77 ± 0.8%.

In the case of “MRNSYRFLASSLSVVVSLLLIPEDVCEKIIGGNEVTPHSRPYMVLLSLDRKTICAGALIAKDWVLTAAHCNLNKRSQVILGAHSITREEPTKQIMLVKKEFPYPCYDPATREGDLKLLQLMEKAKINKYVTILHLPKKGDDVKPGTMCQVAGWGRTHNSASWSDTLREVNITIIDRKVCNDRNHYNFNPVIGMNMVCAGSLRGGRDSCNGDSGSPLLCEGVFRGVTSFGLENKCGDPRGPGVYILLSKKHLNWIIMTIKGAV”, the “percentage of EdU-negative” value is 27.7 ± 2.1% in series [1] (setting [7]), 30.8 ± 3.2% in series [1] (protein concentration 0.225 µM), 5.3 ± 0.55% in series [2] (setting [7]) and 5.96 ± 1.8% in series [2] (protein concentration 0.225 µM).

Take “MQKVTLGLLVFLAGFPVLDANDLEDKNSPFYYDWHSLQVGGLICAGVLCAMGIIIVMSAKCKCKFGQKSGHHPGETPPLITPGSAQS”: the “percentage of EdU-negative” value in series [1] (setting [14]) was found to be 26.4 ± 0.91%; in series [1] (setting [15]) it was 24.9 ± 1%; in series [2] (setting [14]) it was 4.87 ± 0.45%; in series [2] (setting [15]) it was 4.969 ± 0.0066%.

Take “MRGPSGALWLLLALRTVLGGMEVRWCATSDPEQHKCGNMSEAFREAGIQPSLLCVRGTSADHCVQLIAAQEADAITLDGGAIYEAGKEHGLKPVVGEVYDQEVGTSYYAVAVVRRSSHVTIDTLKGVKSCHTGINRTVGWNVPVGYLVESGRLSVMGCDVLKAVSDYFGGSCVPGAGETSYSESLCRLCRGDSSGEGVCDKSPLERYYDYSGAFRCLAEGAGDVAFVKHSTVLENTDGKTLPSWGQALLSQDFELLCRDGSRADVTEWRQCHLARVPAHAVVVRADTDGGLIFRLLNEGQRLFSHEGSSFQMFSSEAYGQKDLLFKDSTSELVPIATQTYEAWLGHEYLHAMKGLLCDPNRLPPYLRWCVLSTPEIQKCGDMAVAFRRQRLKPEIQCVSAKSPQHCMERIQAEQVDAVTLSGEDIYTAGKTYGLVPAAGEHYAPEDSSNSYYVVAVVRRDSSHAFTLDELRGKRSCHAGFGSPAGWDVPVGALIQRGFIRPKDCDVLTAVSEFFNASCVPVNNPKNYPSSLCALCVGDEQGRNKCVGNSQERYYGYRGAFRCLVENAGDVAFVRHTTVFDNTNGHNSEPWAAELRSEDYELLCPNGARAEVSQFAACNLAQIPPHAVMVRPDTNIFTVYGLLDKAQDLFGDDHNKNGFKMFDSSNYHGQDLLFKDATVRAVPVGEKTTYRGWLGLDYVAALEGMSSQQCSGAAAPAPGAPLLPLLLPALAARLLPPAL”: the “percentage of EdU-negative” value in series [1] (setting [7]) stood at 26.1 ± 0.62%; in series [1] (protein concentration 0.225 µM), 27.8 ± 1.6%; in series [2] (setting [7]) it was 6.116 ± 0.02%; in series [2] (protein concentration 0.225 µM), 26.6 ± 0.69%.
